Consider four substances from article PMC6517591.

The target of the experiment is Human FcRn (neonatal Fc-receptor), C-terminally biotinylated (human) (UniProt P55899). As to the kind of experiment: SPR; pH 6.0. (In general: In SPR one partner is held on a chip, and binding of the other changes the refractive index at the surface.)
As a reminder, the Kd is the free concentration of one partner at which half of the binding sites on the other are occupied at equilibrium, for simple one-to-one binding. A low value points to higher affinity. GDob1 IgG1ΔG236 (from UniProt P01857) came in with a Kd of 25 nM.
GDob1 IgG2 (from UniProt P01859) came in with a Kd of 39 nM.
As to GDob1 IgG1 (from UniProt P01857), the Kd turned out to be 23.7 nM.
Consider GDob1 IgG2 + G236 (from UniProt P01859), for which the Kd was found to be 41.8 nM.
